Measured values taken from patent US20210253725A1 (BIONTECH, published 2021).
Residue numbers refer to the chain shown, from its start. Numbers in names are those of the source. Values belong to the binder of their own block, whether it stands above or below them.

How the values were obtained:
[1] = molecular target: T1, CD27 expressed on the cell surface (HT1080_CD27 cells) (human, UniProt P26842 20-260); assay: cell-based or functional assay
T1 sequence (looked up): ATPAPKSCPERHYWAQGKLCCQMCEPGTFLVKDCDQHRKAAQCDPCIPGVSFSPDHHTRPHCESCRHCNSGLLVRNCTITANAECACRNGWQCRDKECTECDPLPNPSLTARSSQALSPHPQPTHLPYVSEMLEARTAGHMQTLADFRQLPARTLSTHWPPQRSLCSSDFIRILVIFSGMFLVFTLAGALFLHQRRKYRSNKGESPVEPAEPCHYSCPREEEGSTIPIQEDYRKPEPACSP

[2] = molecular target: T2, CD27 protein (His-tagged, Sino Biological Inc. 10039-H08B1) (human, UniProt P26842 20-192); assay: ELISA on coated His-tagged CD27
T2 construct: bought; coated onto ELISA plates; also called human CD27; recombinant protein; not shown: His tag
T2 sequence (looked up): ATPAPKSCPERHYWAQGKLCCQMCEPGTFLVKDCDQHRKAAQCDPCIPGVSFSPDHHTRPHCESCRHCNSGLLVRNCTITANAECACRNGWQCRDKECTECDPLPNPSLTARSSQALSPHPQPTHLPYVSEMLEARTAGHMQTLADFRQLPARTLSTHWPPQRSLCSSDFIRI

[3] = molecular target: T1, CD27 expressed on the cell surface …; assay: cellular binding assay, HT1080_CD27 cells
Note: test concentration or dose not given here.

B1: P018.S.02.A.E06 (antibody, V domains shown)
VH: QSLEESGGRLVTPGTPLTLTCTASGFSLSNYSMNWVRQAPGKGLEWIGIINMYGSTYYATWAKGRFTISKTSTTVDLKMTSLTTEDTATYFCARDAGGSTVPWYFDLWGPGTLVTVSS
VL: AYDMTQTPASVSEPVGGTVTIKCQASESISDYLAWYQQKPGQRPKLLIYDASKLASGVPSRFSGSGSGTEFTLTISGVGSADAATYYCQQGYADSNVDNVFGGGTEVVVK
notes: V regions on human Ig constant parts; also called AB27_34
IL-8, cross-linked by F(ab')2 fragment [abs. corr.] [1]: 1.29 abs. corr.
IL-8 [abs. corr.] [1]: 0.308 abs. corr.
ELISA [abs. corr.] [2]: 3.32 abs. corr.
Cellular binding assay [RFU] [3]: 331 RFU

B3: P018.S.04.A.D05 (antibody, V domains shown)
VH: QSLEESGGRLVTPGTPLTLTCTASGIDLSRHAINWVRQAPGKGLEYIGTIYASGSTFYASGAKGRFTISKTSTTVDLGITSLTTEDTATYFCARGITIEWFDLWGQGTLVTVSS
VL: AAVLTQTPSSVSAAVGGTVTINCQSSPSVYSNYLSWFQQKPGQPPKLLIYGAATLASGVPSRFRGSGSGTEFTLTITDVQSDDAATYYCLGGYSDTADTIFGGGTEVVVK
notes: V regions on human Ig constant parts; also called AB27_73
IL-8, cross-linked by F(ab')2 fragment [abs. corr.] [1]: 1.08 abs. corr.
IL-8 [abs. corr.] [1]: 0.241 abs. corr.
ELISA [abs. corr.] [2]: 3.33 abs. corr.
Cellular binding assay [RFU] [3]: 292 RFU

B4: P018.S.04.A.A01 (antibody, V domains shown)
VH: QEQLVESGGGLVQPEGSLTLTCTESGFSFSSNAVCWVRQAPGKGLEWIACIYVDSIGSTWYASWAKGRFTISKTSSTTVTLQMTSLTAADTATYFCARGDNIAYFMLWGPGTLVTVSS
VL: DIVMTQTPASVEAAVGGTVTIRCQASESITSFLSWYQQKPGQPPKLLIYKISTLASGVPSRFKASGSGTEFTLTISDLESADAAAYYCQGYYYYSNVVYASNGFGGGTEVVVK
notes: V regions on human Ig constant parts; also called AB27_64
IL-8, cross-linked by F(ab')2 fragment [abs. corr.] [1]: 1.47 abs. corr.
IL-8 [abs. corr.] [1]: 0.176 abs. corr.
ELISA [abs. corr.] [2]: 3.32 abs. corr.
Cellular binding assay [RFU] [3]: 297 RFU

B7: P018.S.01.A.H06 (antibody, V domains shown)
VH: QEQLKESGGRLVKPDETLTITCTASGFSLSRYDMSWVRQAPGKGLEWIGSIWSDGDTDYANWAKGRFTISKTSTTVDLKITSPTTEDTATYFCARGYTAWSLWGPGTLVTVSS
VL: ALVMTQTPSPVSAAVGGTVTISCQSSESVVGNNALSWFQQKPGQPPKLLNYQASTLASGVSSRFSGSGSGTQFTLTISGVQSDDAATYYCQGTYYSSGWYFAFGGGTEVVVK
notes: V regions on human Ig constant parts; also called AB27_26
IL-8, cross-linked by F(ab')2 fragment [abs. corr.] [1]: 2.18 abs. corr.
IL-8 [abs. corr.] [1]: 0.27 abs. corr.
ELISA [abs. corr.] [2]: 3.44 abs. corr.
Cellular binding assay [RFU] [3]: 422 RFU

B8: P018.S.05.A.G04 (antibody, V domains shown)
VH: B7 VH with T17S, I20L, T75M, A94G, S101N
VL: B7 VL with A14T, V19L, N50I
notes: V regions on human Ig constant parts; also called AB27_93
IL-8, cross-linked by F(ab')2 fragment [abs. corr.] [1]: 1.19 abs. corr.
IL-8 [abs. corr.] [1]: 0.393 abs. corr.
ELISA [abs. corr.] [2]: 3.35 abs. corr.
Cellular binding assay [RFU] [3]: 375 RFU

B9: P018.S.07.A.D03 (antibody, V domains shown)
VH: QEQLKESGGGLVTPGGTLTLTCTVSGFSLSGHDMGWVRQAPGKGLEWIGIIGSNSKTYYTNWAKGRFTISKTSTTVGLRITSPTTEDTATYFCTVVGPGVGGFYFDLWGQGTLVTVSS
VL: DVVMTQTPASVSDPVGGTVTIRCQASQSIGSDLAWYQQKPGQPPKLLIYAASTLASGVPSRFSGSGSGTEYTLTISDLESADAATYYCQCTYVGSTYLGAFGGGTEVVVK
notes: V regions on human Ig constant parts; also called AB27_122
IL-8, cross-linked by F(ab')2 fragment [abs. corr.] [1]: 1.68 abs. corr.
IL-8 [abs. corr.] [1]: 0.569 abs. corr.
ELISA [abs. corr.] [2]: 3.34 abs. corr.
Cellular binding assay [RFU] [3]: 409 RFU

B11: P018.S.03.A.C05 (antibody, V domains shown)
VH: QSLEESGGGLVQPGGTLTLTCKASGIDFSSSFYMCWVRQAPGKGLERIACTYNRDGSTYYASWAKGRFTISKTSSTTVTLQMASLTVADTATYFCARDDGYPGSGYVFNLWGPGTLVTVSS
VL: DVVMTQTPASVEAAVGGTVTIKCQASQSVSSYLSWYQQKPGQRPKLLIYGASNLESGVPSRFKGSGSGTEFTLTISGVQSDDAATYYCQGGYYSSGADNNSFGGGTELVVK
notes: V regions on human Ig constant parts; also called AB27_46
IL-8, cross-linked by F(ab')2 fragment [abs. corr.] [1]: 1.63 abs. corr.
IL-8 [abs. corr.] [1]: 0.544 abs. corr.
ELISA [abs. corr.] [2]: 3.32 abs. corr.
Cellular binding assay [RFU] [3]: 303 RFU

B12: P018.S.07.A.D04 (antibody, V domains shown)
VH: QSLEESGGRLVTPGGSLTLTCTVSGIDLSSYAMGWVRQAPGKGLEWIGIISSSGSTYYASWANGRFTISKTSTTVDLKVTSPTTEDTATYFCARDGDSGRGYYFHFWGQGTLVTVSS
VL: AFELTQTPASVSAAVGGTVTIKCQASEDIYSLLAWYQQKPGQPPKLLIYDASDLASGVPSRFSGSGSGTEYTLTISDLESADAAIYYCQQGYTTVTIVDNVFGGGTEVVVK
notes: V regions on human Ig constant parts; also called AB27_123
IL-8, cross-linked by F(ab')2 fragment [abs. corr.] [1]: 1.81 abs. corr.
IL-8 [abs. corr.] [1]: 0.449 abs. corr.
ELISA [abs. corr.] [2]: 3.33 abs. corr.
Cellular binding assay [RFU] [3]: 393 RFU

More lines, now with the values ahead:

IL-8, cross-linked by F(ab')2 fragment [abs. corr.] [1]: 2.41 abs. corr.
IL-8 [abs. corr.] [1]: 0.725 abs. corr.
ELISA [abs. corr.] [2]: 3.33 abs. corr.
Cellular binding assay [RFU] [3]: 453 RFU
B2: P018.S.07.A.G02 (antibody, V domains shown)
VH: QSVEESGGRLVTPGTPLTLTCTVSGFSLSSYDMSWVRQAPGKGLEWIGWITTDGGTDYASWAKGRFTVSKASTTVDLKITSPTTEDTATYFCARGYASFNLWGQGTLVTVSS
VL: AQVLTQTPSSVSAAVGGTVTINCQSSQSVLSNSYLAWYQQKPGQPPKLLIYAASSLASGVPSRFKGSGSGTQFTLTISDLESDDAATYYCQGTDYSGGWYVAFGGGTEVVVK
notes: V regions on human Ig constant parts; also called AB27_129

IL-8, cross-linked by F(ab')2 fragment [abs. corr.] [1]: 2.13 abs. corr.
IL-8 [abs. corr.] [1]: 0.578 abs. corr.
ELISA [abs. corr.] [2]: 3.54 abs. corr.
Cellular binding assay [RFU] [3]: 268 RFU
B5: P018.S.09.A.H03 (antibody, V domains shown)
VH: QSLEESGGRLVTPDESLTLTCTVSGFSLSSNAMIWVRQAPGKGLEWIGIIDTGGSAYYASWAKGRFTISKTSTTVDLKITSPTTEDTATYFCARDRYTDSSGYNLWGQGTLVTVSS
VL: DIVMTQTPASVEAAVGGTVTIKCQASQSIGASLAWYKQKPGQPPKLLIYSASWLASGVPSRFKGSGSGTEFTLTISDLASADAATYYCQSYYYRSSSGYGYAFGGGTEVVVK
notes: V regions on human Ig constant parts; also called AB27_160

IL-8, cross-linked by F(ab')2 fragment [abs. corr.] [1]: 1.66 abs. corr.
IL-8 [abs. corr.] [1]: 0.688 abs. corr.
ELISA [abs. corr.] [2]: 3.35 abs. corr.
Cellular binding assay [RFU] [3]: 376 RFU
B6: P018.S.09.A.D04 (antibody, V domains shown)
VH: QSVEESGGRLVTPGTPLTLTCTVSGFSLSSNAISWVRQAPGKGLEWIAIITHSDNTFYASWAKGRFTISKASTTVDLKVTSPTTEDTATYFCARDGYVSSSGTYMGGYFDLWGQGTLVTVSS
VL: DPVLTQTPSPVSAAVGGTVTINCQASQIIYNDKNLAWYQQKPGQPPKLLIYYASTLASGVSSRFKGSASGTQFTFTISGVQSDDAATYYCQGEFSCSSADCIAFGGGTEVVVK
notes: V regions on human Ig constant parts; also called AB27_151

IL-8, cross-linked by F(ab')2 fragment [abs. corr.] [1]: 1.23 abs. corr.
IL-8 [abs. corr.] [1]: 0.422 abs. corr.
ELISA [abs. corr.] [2]: 3.35 abs. corr.
Cellular binding assay [RFU] [3]: 327 RFU
B10: P018.S.07.A.H06 (antibody, V domains shown)
VH: QSLEESGGDLVQPGASLTLTCKASGIDLSSYWMCWVRQTPGKGLEWIGCIATYSSVTYYANWAKGRFTISKPSSTTVTLQMTSLTAADTATYFCARDPYSFNGSLFTLWGPGTLVTVSS
VL: ALVMTQTASPVSAAVGGTVTIDCQASQNIGTYLAWYQQKPGQPPKLLIYTASSLASGVPSRFKGSGSGTQFTLTISDLESDDAATYYCAGYKNYNNDDNGFGGGTEVVVK
notes: V regions on human Ig constant parts; also called AB27_134

IL-8, cross-linked by F(ab')2 fragment [abs. corr.] [1]: 1.55 abs. corr.
IL-8 [abs. corr.] [1]: 0.315 abs. corr.
ELISA [abs. corr.] [2]: 3.33 abs. corr.
Cellular binding assay [RFU] [3]: 387 RFU
B13: P018.S.08.A.E02 (antibody, V domains shown)
VH: QSLEESGGRLVTPGGSLTLTCTVSGIDLSSYDMNWVRQAPGEGLEWIGAISTGGDTHYTNWAKGRFTISKTSTTVDLKMTSLTAADTATYFCARGYYTLALWGQGTLVTVSS
VL: DPVLTQTPASVEAAVGGTVTIKCQASQSINSWLSWYQQKPGQPPKRLIYDTSTLESGVPSRFSGGESGTEFTLTISDLESDDAATYYCQSYYYITSSYAITFGGGTEVVVK
notes: V regions on human Ig constant parts; also called AB27_139
